In the supplement of paper PMC12042874:
± gives the uncertainty stated by the source.

Assay: amyloid nucleation score (Sup35N fusion, yeast selection) (log enrichment); library NNK2; higher = more nucleation; inactive = no reads after selection
Method in brief: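 Peptides of 20 random codons fused to Sup35N were expressed in psi-negative yeast, induced 24 hours with 100 μM copper sulfate, then grown 7 days at 30°C on medium lacking adenine and uracil. Input and output plasmid inserts were Illumina-sequenced. Nucleation score is the DiMSum log enrichment of output over input reads, centred on the mode score of non-aggregating sequences, excluding sequences with under 100 input reads. Random libraries had three technical output replicates.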

Row | Substance | amyloid nucleation score
1 | SLSFLKSGPLA | inactive
2 | SLSRCALL | -0.789 ± 0.39
3 | SLSRGLC | 0.404 ± 0.45
4 | SLSWLWFLNSKSRMSTDISV | inactive
5 | SLVCM | -0.713 ± 0.29
6 | SLVLVDFAYSWMSGSAFWFF | -1.09 ± 1.1
7 | SLVYKGLCILSTLFLYFDFL | -0.337 ± 1
8 | SLYCF | inactive
9 | SLYKHSTHWRLCSTMAIVKP | 0.953 ± 0.51
10 | SLYLSWYDIFLMYGCWNVVR | 0.638 ± 0.37
11 | SMDGSQDCTTKLNWSFHSVF | 3.88 ± 0.066
12 | SMDRIQEGLHRQLVFDVSE | 0.624 ± 0.35
13 | SMEAFYRGFFKTPWSY | -0.2 ± 0.29
14 | SMIIQTQHI | 0.024 ± 0.55
15 | SMILVHKSNLQFLGKDDTQS | 6.539 ± 0.025
16 | SMISWATMVSRRDYLYMCV | -0.216 ± 0.45
17 | SMPMGGERIWVIYCRFQVLS | -0.585 ± 0.35
18 | SMRCLIMCATDCRNDMGRLW | 5.362 ± 0.039
19 | SMRTG | 0.448 ± 0.23
20 | SMRVYHSHLNWFH | 6.63 ± 0.063
21 | SMYVDVFLRFGSWLHSFT | -0.127 ± 0.74
22 | SNCFHLVW | -0.031 ± 1
23 | SNCRQSPYNNQVI | 0.155 ± 1.1
24 | SNESNFIVICVCMDCIRGGG | inactive
25 | SNFPWPMERPEFSDDSVFWA | -0.313 ± 0.76
26 | SNFVTVSGTPPHIILMCKDW | 4.71 ± 0.055

Row | Substance | amyloid nucleation score
27 | SNGCQTRADGLTECDICKPS | 0.33 ± 0.24
28 | SNGCRRALL | inactive
29 | SNGLGLQCGIRGKVFNELLS | -0.674 ± 0.42
30 | SNIYLVPRFIWP | -0.338 ± 0.61
31 | SNLVKHRQV | 0.745 ± 0.46
32 | SNNHND | inactive
33 | SNPSVNLCRWIDACNSDLIT | 0.165 ± 1
34 | SNSVCACCKCWLGLSLPYQG | 7.781 ± 0.046
35 | SNVDVFVTKMWRATQSCFRL | 3.67 ± 0.12
36 | SNVFEVGPMGPSR | 0.056 ± 0.5
37 | SNWNTTPVSPS | 0.514 ± 0.44
38 | SNYHSGRVKGGDVGVYIS | 3.57 ± 0.051
39 | SPCFWMLPVKKPPACR | 5.082 ± 0.039
40 | SPHASMTIVIF | 1.04 ± 0.22
41 | SPHDVGNSIVIMGFRMWLN | 0.082 ± 0.44
42 | SPIPFPYMYVYSMWCDTLTR | 0.505 ± 0.3
43 | SPKTDDTTVMGELYVWLTLG | 8.338 ± 0.036
44 | SPKTYRRIIGIGQVAVRVCK | 0.673 ± 0.25
45 | SPLCVF | -0.211 ± 0.38
46 | SPLYLTLCMTLQVYGSR | 4.04 ± 0.073
47 | SPMNDLY | 0.041 ± 0.49
48 | SPMTDLVRMRGRME | 0.051 ± 0.49
49 | SPNRQLVKFYFQTTYMVSRL | 3.52 ± 0.071
50 | SPRSAIFSLTTQVF | 3.34 ± 0.13
51 | SPYAFACAGCSGVKG | 0.234 ± 0.26
52 | SPYLMSTDKIRLSP | 1.16 ± 0.44

Row | Substance | amyloid nucleation score
53 | SQCFERV | 0.637 ± 0.36
54 | SQGIVSDAANYMHILSAGYD | 0.044 ± 0.55
55 | SQKNCCKVEGRLMASRVKPR | 0.155 ± 1.1
56 | SQLLDSLQNGRGCYSM | inactive
57 | SQPHYGRASACRSSSSR | 0.831 ± 0.51
58 | SRANMQSRCRLNNQSVYGKL | -0.175 ± 0.45
59 | SRCLSSITVLTCNHMSVKAC | 0.224 ± 0.8
60 | SRDCVRDLSVMCSLWKWFPV | -0.394 ± 1.1
61 | SRDVAAYNRRRRFAVLGWGE | 0.44 ± 0.38
62 | SRFGGVSTHYLARSFVDVTM | 0.039 ± 0.44
63 | SRGISKVTWP | 0.276 ± 0.28
64 | SRGSYIPSPLRHSFSVLWRF | -0.785 ± 0.63
65 | SRHRVLFFYKFVCLIWV | -0.8 ± 0.74
66 | SRIRDLVPHIRC | -0.594 ± 1.1
67 | SRLISTHTAT | inactive
68 | SRMLYVQIWREYVNSWKTSS | -0.356 ± 0.38
69 | SRNSLLRS | -0.924 ± 0.45
70 | SRRVLYMVVPPLVF | -1.36 ± 0.54
71 | SRSAWLRELDPPA | 0.839 ± 0.43
72 | SRSFKVRNL | inactive
73 | SRSILLKAGWI | inactive
74 | SRSSHLM | 0.073 ± 0.37
75 | SRSSTCGSRGLTGNRGGGIG | 0.299 ± 0.45
76 | SRVYRCGWLGS | 0.274 ± 0.65
77 | SRYFVVAGRSLNTCVNMCCV | 4.78 ± 0.069
78 | SRYSSV | 0.172 ± 0.65

Row | Substance | amyloid nucleation score
79 | SSADMQRY | -0.383 ± 0.48
80 | SSASFSVHQYCYLLNPSF | 1.45 ± 0.28
81 | SSASLGVAV | -0.517 ± 0.76
82 | SSAYQMSEY | 0.072 ± 1.1
83 | SSCPYYHGYNVRVMSCSHVI | 0.091 ± 0.4
84 | SSCYSVLGMRL | inactive
85 | SSEIKRSWGYFLSLLWFYYR | -0.696 ± 1
86 | SSFHWPIKSRDAGVAWSRGG | 2.07 ± 0.18
87 | SSFRSLRSRHPPGTLPPDTP | 0.919 ± 0.3
88 | SSKLLYM | -0.059 ± 0.55
89 | SSLFMTIWDSFSPI | -0.186 ± 0.45
90 | SSLVVMMGILMEVTVAGLGV | 0.241 ± 0.37
91 | SSLWSGPKVIQDY | -0.122 ± 0.28
92 | SSNSANVILASYEDYRRVNP | -0.526 ± 0.79
93 | SSQCYYGPLFWSYEFRSYCV | -0.162 ± 0.46
94 | SSQFR | 0.705 ± 0.44
95 | SSRSTCNINSYELSVSVQLR | 5.35 ± 0.075
96 | SSTVCCHALVCSVSNFGFTV | 9.783 ± 0.038
97 | SSVRR | 0.723 ± 0.22
98 | SSWPSMST | -0.458 ± 0.28
99 | SSWSSNQNSTYTLRSYTALH | 5.2 ± 0.069
100 | SSWYHFDFGYCECGSNDGFV | 0.102 ± 0.79
101 | SSYLMTYC | -0.104 ± 0.35
102 | SSYRSEGSAYGMPYYPVSAS | 1.06 ± 0.38
103 | STAWKCEVYRRV | 1.14 ± 0.33
104 | STDIWVWFYRNFLMTANRN | inactive

Row | Substance | amyloid nucleation score
105 | STDWNLRPGPSLRWLLSPAT | 0.92 ± 0.45
106 | STGIGDNATFSYRISRYSVC | -0.492 ± 0.39
107 | STLHQSIKTGDIFFDSGTFV | -0.889 ± 0.49
108 | STLSWSFIYTSIC | 2.24 ± 0.1
109 | STMAGTLW | 0.051 ± 0.4
110 | STMFSVNFST | inactive
111 | STNRWQHIL | -0.382 ± 0.48
112 | STRVWWDSWMFWLNEK | -0.607 ± 1
113 | STSRFTMQQRRKLYKSFCWR | -0.665 ± 1.1
114 | STSVWRGLSRPRNVQRRLDT | -0.985 ± 0.42
115 | STSWGSRSVDCC | -0.609 ± 0.25
116 | STTQEF | 0.086 ± 0.32
117 | STVMWLRASLRIQNYTRGDT | 4.54 ± 0.052
118 | STYLFNSSHPVSVISEAQFS | -0.408 ± 0.79
119 | SVDGMLSVSVLVNDVVKTPL | 0.309 ± 0.22
120 | SVDYLCFVFNGGRSSSECQY | 7.755 ± 0.032
121 | SVFSYMYRLNSALLYFFYQS | inactive
122 | SVGIVSSDRCLCLMSM | 1.3 ± 0.39
123 | SVGVTVSRVASREGSSRSRA | 0.573 ± 0.36
124 | SVIIQLSYTRGYWLLQA | -0.845 ± 0.45
125 | SVKNR | 3.51 ± 0.049
126 | SVLELYRTSIFYLRLVSNLL | 3.52 ± 0.079
127 | SVLIFATRKCLYFYLGFMR | -1.66 ± 0.45
128 | SVLQTTFVLVVGKTYNTSTD | 2.94 ± 0.072
129 | SVLTCKLK | inactive
130 | SVNSC | -0.654 ± 1

Row | Substance | amyloid nucleation score
131 | SVNYFLRGHKPRVNVVPSVE | 5.119 ± 0.046
132 | SVRFAC | -0.114 ± 1.1
133 | SVRKGVFNSSMNGVCTTVQS | -0.28 ± 0.74
134 | SVRNNLAVGDKLFNVTADCN | 0.168 ± 0.8
135 | SVSNVPRGWSLTRGLSTVPG | 0.828 ± 0.22
136 | SVSQPYSKSVGLRGRGKQGQ | 0.737 ± 0.46
137 | SVSVYTASS | inactive
138 | SVVFDYCSGIVSRY | -0.483 ± 1.1
139 | SVVVNPCLLA | -0.623 ± 1
140 | SVVYSFTRMPVGIFLMISEL | -0.552 ± 0.35
141 | SVYMLRLNYYSFVVLRQTGA | -0.135 ± 0.79
142 | SVYREWLPSSSRVWCMSLSG | -0.317 ± 0.63
143 | SVYRFFAKSKMKCWGLHNGG | -0.63 ± 0.55
144 | SWALKRAPVGNR | inactive
145 | SWFRFCMYWFSDCRNILGS | 4.58 ± 0.051
146 | SWGGLSKGYCLFQSWRVVLG | 3.75 ± 0.054
147 | SWGSVRNRMCMSGGRKSSDA | inactive
148 | SWLRMSTDVIGLRWFDGNA | 4.84 ± 0.065
149 | SWLYLPWLLLQARILHR | -0.197 ± 0.24
150 | SWNELSRFLVILLFQLSRDR | -0.795 ± 0.43
151 | SWRIDNVGSRWSTMVCC | 6.09 ± 0.063
152 | SWVLLAY | 0.45 ± 0.8
153 | SWVSFDKSLHMGVVYDRLRR | inactive
154 | SWVVL | -0.563 ± 0.79
155 | SWWAY | 0.69 ± 0.62
156 | SYARIYFWDEILENPSPVWE | -0.378 ± 1

Row | Substance | amyloid nucleation score
157 | SYASWYCLYCKNSGQGFLFE | 7.948 ± 0.026
158 | SYAYVSKMYVKYCQLKFI | -0.921 ± 0.78
159 | SYDPGITSSWMVRIRRVRMC | -0.001 ± 0.49
160 | SYDSPPSEHLVPVAQSISVP | 1.17 ± 0.44
161 | SYEVNIYKLRLQGSSSGF | 3.44 ± 0.066
162 | SYFDMWIGW | 1.2 ± 0.47
163 | SYFHNHWFCLRQFRVDASWC | -0.047 ± 0.46
164 | SYFSCCLFFRAFSTFFGVIP | 3.33 ± 0.11
165 | SYGFQVLDAKDVLMLAFVWA | 0.255 ± 1.1
166 | SYGIAWTIMT | -0.701 ± 0.45
167 | SYGNEFMM | 0.363 ± 0.57
168 | SYHNVG | -0.974 ± 0.61
169 | SYHRQRSNTFTAKLQCSRSW | 0.307 ± 0.56
170 | SYIGMNQNCFSEQLNNAQTG | 0.606 ± 0.18
171 | SYSFRVVDWVYILTYLRKFE | 1.65 ± 0.33
172 | SYSLIVE | 0.919 ± 0.48
173 | SYSVQAALVCVFGGCNHVGS | 9.383 ± 0.048
174 | SYVAFLSTTRASSMI | inactive
175 | SYVVPGFISASFYLCYCTSK | 3.03 ± 0.12
176 | SYVYMREKSIGTDSAVLRSM | inactive
